The values below are quoted from earlier work in patent US8420067B2, “Targeted polylysine dendrimer therapeutic agent” (Starpharma Pty Ltd, priority 2006, dated 2013).

Like-named read-outs stand apart in the source and are kept apart here.

For the substance “α-methoxy-ω-{N-2-(3-hydroxypropyl-cholesterylcarbamate)-2-methyl-[1,3]dioxan-5-yl-amido}-polyethyleneglycol110”, the “stability of the conjugate in acidic conditions” value (“stability of the conjugate” below) (acidic conditions (pH 4-6)) is listed as “not stable”.
For “α-methoxy-ω-{N-(2-cholesteryloxy-[1,3]dioxolan-4-yl)methylamido}-polyethyleneglycol110”, the “stability of the conjugate” value is, setting by setting: (pH 4) “moderately less stable”; (pH 5) “very stable”.
Turning to “α-methoxy-ω-{N-(2-methyl-s-octadecyloxy-[1,3]dioxan-5-yl)-amido}-polyethyleneglycol110”, the “stability of the conjugate” value (acidic conditions (pH 4-6)) was “not stable”.
On to “α-methoxy-ω-{N-(2-octadecyloxy-[1,3]dioxolan-4-yl)methylamido}-polyethyleneglycol110”, for which the “stability of the conjugate” value (pH 4) is given as “good stability” and the “stability of the conjugate” value (pH 5) is “good stability”.
